B1: Translocated intimin receptor Tir (Escherichia coli O127:H6 (strain E2348/69 / EPEC)), B7UM99 (parent)
chain: MPIGNLGNNVNGNHLIPPAPPLPSQTDGAARGGTGHLISSTGALGSRSLFSPLRNSMADSVDSRDIPGLPTNPSRLAAATSETCLLGGFEVLHDKGPLDILNTQIGPSAFRVEVQADGTHAAIGEKNGLEVSVTLSPQEWSSLQSIDTEGKNRFVFTGGRGGSGHPMVTVASDIAEARTKILAKLDPDNHGGRQPKDVDTRSVGVGSASGIDDGVVSETHTSTTNSSVRSDPKFWVSVGAIAAGLAGLAATGIAQALALTPEPDDPTTTDPDQAANAAESATKDQLTQEAFKNPENQKVNIDANGNAIPSGELKDDIVEQIAQQAKEAGEVARQQAVESNAQAQQRYEDQHARRQEELQLSSGIGYGLSSALIVAGGIGAGVTTALHRRNQPAEQTTTTTTHTVVQQQTGGNTPAQGGTDATRAEDASLNRRDSQGSVASTHWSDSSSEVVNPYAEVGGARNSLSAHQPEEHIYDEVAADPGYSVIQNFSGSGPVTGRLIGTPGQGIQSTYALLANSGGLRLGMGGLTSGGESAVSSVNAAPTPGPVRFV

Variants of: B1
Conditions: with anxa2_human ANXA2, P07355
anxa2_human ANXA2, P07355, sequence (P07355 whole entry): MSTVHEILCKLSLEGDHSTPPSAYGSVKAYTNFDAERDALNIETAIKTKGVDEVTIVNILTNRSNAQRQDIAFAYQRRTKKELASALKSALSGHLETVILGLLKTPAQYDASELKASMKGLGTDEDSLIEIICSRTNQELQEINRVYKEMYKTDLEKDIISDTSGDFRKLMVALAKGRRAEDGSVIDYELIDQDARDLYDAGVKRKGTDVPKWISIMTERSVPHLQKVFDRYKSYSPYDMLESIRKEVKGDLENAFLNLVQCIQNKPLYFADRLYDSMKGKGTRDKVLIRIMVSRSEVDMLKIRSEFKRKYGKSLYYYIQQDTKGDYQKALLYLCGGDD

How did the “effect of a mutation on the interaction” value turn out when Y474S was run?
Its value is “with no effect”.

Source: IntAct's records for PubMed 22587461
